Experimental data reported in US11473061B2, “Systems and methods for growth of intestinal cells in microfluidic devices” (Cedars-Sinai Medical Center, priority 2016, dated 2022).

Legend:
iFGEs = experiment: Seahorse mitochondrial stress test in iFGEs; type: cell-based, human; settings: low-dose EDC treatment
Protocol: (§2) The Seahorse XF^e24 Extracellular Flux Analyzer (Seahorse Biosciences) was used to perform mitochondrial stress tests and obtain real-time measurements of oxygen consumption rate (OCR) in cells. iFGEs and iHTNS treated with or without EDCs were seeded in a 24-well Seahorse culture plate at a density of 10,000-15,000 cells/well. For analysis of OCR, cells were reconstituted in Seahorse base medium and were allowed to settle for 1 hour at 37° C. in non-CO2 incubator before measurements. Chemical reagents (Sigma) were used at final concentrations as follows: 1 μM Oligomycin—an ATP synthase inhibitor, 1 μM (FCCP) carbonyl cyanide 4-(trifluoromethoxy)phenylhydrazone—an uncoupling agent, and a mixture of 0.50 μM antimycin A—a cytochrome C reductase inhibitor and 0.5 μM rotenone—a complex I inhibitor. Results were normalized to protein concentration determined by BCA assay (Thermo Scientific).

iHTNs = experiment: Seahorse mitochondrial stress test in iHTNs; type: cell-based, human; settings: low-dose EDC treatment
Protocol: as §2

[1] = system: human intestinal epithelial cells derived from IPSCs; experiment: Transepithelial electrical resistance (TEER) in microfluidic chips; type: cell-based; settings: 10 ng/ml of IFNgamma, basal administration, over time
Protocol: (§1) Human intestinal epithelial cells derived from IPSCs were treated with 10 ng/ml of IFNgamma. The basal administration of IFNg leads to a decrease in transepithelial resistance and an increase in the efflux of dextran FITC in human intestinal epithelial cells derived from IPSCs. Basically this means that the intestinal epithelium is more permeable in response to this cytokine.

[2] = system: human intestinal epithelial cells derived from IPSCs; experiment: Dextran FITC permeability of iPSC-derived intestinal epithelium; type: cell-based; settings: for basal accumulation of FITC dextran: after addition to the apical layer; for permeability co-efficient (FITC dextran added to the apical channel): microfluidic chips
Protocol: as §1

hindgut intestinal cells = experiment: TEER of hindgut intestinal cells grown in transwell; type: cell-based, human; settings: for TEER / transepithelial resistance: transwell, compared to control
Excerpt: FIG. 76. Depiction of exemplary transwell apparatus, including deposit of cells on a membrane and measurement of electrical properties via electrodes spanning both sides of the chamber.
FIG. 79. TEER measurement of hindgut intestinal cells growth in transwell.
FIG. 81. Another depiction of IFNγ responsiveness for cells grown in a transwell system.

[3] = system: STAT1 and IFNgamma responsive genes; experiment: IFNgamma response of iPSC-derived intestinal cells in small microfluidic device; type: cell-based, human; settings: IFNgamma administered to the lower channel
Protocol: In one embodiment, iPSCs were directed to form HIOs and were subsequently dissociated to a single cell suspension. These cells were then seeded into a small microfluidic device (SMD) which is composed of two chambers separated by a porous flexible membrane. See, FIG. 40.

Caco2 cells = experiment: IFNgamma response of Caco-2 cells on chips; type: cell-based, human
[4] = human intestinal epithelial cells derived from IPSCs

Molecule: O=C(O)C(F)(F)C(F)(F)C(F)(F)C(F)(F)C(F)(F)C(F)(F)C(F)(F)F [PFOA, perfluorooctanoic acid]
- effect on spare respiratory capacity (iFGEs): did not show any effect
- effect on spare respiratory capacity (iHTNs): did not show any effect

Molecule: tributyltin [TBT]
- effect on spare respiratory capacity (iHTNs): significant impairment

Molecule: TNFalpha
- transepithelial electrical resistance (TEER) ([1]; n=4): increased TEER over time comparable to controls
- basal accumulation of FITC dextran [2, 4]: comparable
- intestinal permeability ([2]; human intestinal epithelial cells derived from IPSCs, microfluidic cultures): does not elicit any change
- permeability co-efficient (FITC dextran added to the apical channel) [2]: comparable
- intestinal permeability (hindgut intestinal cells; transwell system): does not elicit any change

B1: IFNgamma: inflammatory cytokine interferon-gamma (protein, UniProt P01579 24-161, looked up)
Interferon gamma: QDPYVKEAENLKKYFNAGHSDVADNGTLFLGILKNWKEESDRKIMQSQIVSFYFKLFKNFKDDQSIQKSVETIKEDMNVKFFNSNKKKRDDFEKLTNYSVTDLNVQRKAIHELIQVMAELSPAAKTGKRKRSQMLFRG
- transepithelial electrical resistance (TEER) ([1]; n=4): loss
- transepithelial electrical resistance (TEER) ([1]; n=4, listed as IFNg): decrease
- efflux of dextran FITC [2, 4]: increase
- basal accumulation of FITC dextran ([2]; human intestinal epithelial cells derived from IPSCs, listed as IFNγ): basal accumulation
- permeability co-efficient (FITC dextran added to the apical channel) [2]: increase
- TEER / transepithelial resistance (hindgut intestinal cells): decrease
- TEER / transepithelial resistance (hindgut intestinal cells; listed as IFNγ): increase
- IFNgamma responsive genes (IDO1, GBP4 and/or GBP5) [3]: significant upregulation
- phospholipase A2 group 2A and Muc4 expression [3]: upregulated
- phosphorylation of STAT1 [3]: phosphorylation
- genes associated with intestinal epithelial subtypes (Caco2 cells; Caco2 cells): no corresponding upregulation
- response to IFN-gamma (relative expression of gene markers) (Caco2 cells; Caco-2 epithelial cells grown on chips vs enteroids grown on chips): do not show the same response
